# Measurements taken from the RNAGym collection of RNA variant scans (doi:10.1073/pnas.2313332121).
# This sample holds only a part of the variants without activity.
# B1: TPR 5TU (parent)
# chain: GGAUCUUCUCGAUCUAACAAAAAAGACAAAUCUGCCACAAAGCUUGAGAGCAUCUUCGGAUGCAGAGGCGGCAGCCUUCGGUGGCGCGAUAGCGCCAACGUUCUCAACUAUGACACGCAAAACGCGUGCUCCGUUGAAUGGAGUUUAUCAUG
# Variants of: B1
# Test: polymerase ribozyme fitness, log enrichment relative to wild type (log ratio); higher = more active; in vitro selection for triplet polymerase activity
# In short: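 One round of in vitro selection, in triplicate, was applied to PCR-built, transcribed mutant libraries of each subunit of a heterodimeric triplet polymerase ribozyme. The steps were annealing with a biotinylated primer, partner subunit and triplets, incubation frozen at −7 °C, gel excision of extended constructs, streptavidin-bead capture and RT-PCR. Fitness is the logarithm, base 2, of genotype enrichment over wild-type enrichment from inverse-variance-weighted replicate averages of Illumina-sequenced inputs and outputs, keeping genotypes with ≥10 input reads and ≥1 read per output.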
row,Variant,polymerase ribozyme fitness (log ratio)
1,GGAUCUUCUCGAUCUAACAAAAAAGACAAAUCUGCCACAAAGCUUUAGAGCAUCUUCGGAUGCAGAGGUGGCAGCCUUCGGUGGCGCGAUAGCGCAAACGUUCUCAACUUUGACACGCAACACGCGUGCUCCGUUGAAUGGAGUUUAUCAUG [G46U C69U C96A A110U A121C],≤ -4.2
2,GGAUCUUCUCGAUCUAACAAAAAAGACAAAUCUGCCACAAAGCUUGCGAGUAAAUUCGGAUGCAGAGGCGGCAGCCUUCGGUGGCGCGAUAGCGCCAACGUUCUCAACUAUGACACGCAAAACGCGUGCUCCGUUGAAUGUAGUUUAUCAUG [A47C C51U U53A C54A G141U],-4.13
3,GGAUCUUCUCGAUCUAACAAAAAAGACAAAUCUGCCACAAAGCUUGCGAGCAUCUUCGGAUGCAGAGGCGGCAGCCUUCGGUGGCGCGUUAGCGCCAACGUUCUCAACUAUGACACGCAAAACGCGUGCUCCGUUGAAUGGAGUUUAUCGUG [A47C A89U A150G],-1.84
4,GGAUCUUCUCGAUCUAACAAAAAAGACAAAUCUGCCACAAAGCUUGCGAGGAUCUUCGGAUGCAGAGGCGGCAGCCUUCGGUGGCGUGUUAGCGCCAACGUUCUCAGCUAUGACACGCAAAACGCGUGCUCCGUUGAAUGGAGUUUAUCAUG [A47C C51G C87U A89U A107G],≤ -4.2
5,GGAUCUUCUCGAUCUAACAAAAAAGACAAAUCUGCCACAAAGCUUUAGAGCAUCUUCGGAUACAGAGGCGGCAGCAUUCGGUGGCGUAAUAGCGCCAACGUUCUCAACUAUGACACGUAAAACGCGUGCUCCGAUGAAUGGAGUUUAUCAUG [G46U G62A C76A C87U G88A C118U U134A],≤ -4.2
6,GGAUCUUCUCGAUCUAACAAAAAAGACAAAUCUGCCACAAAGCUUUAGAGCAUCUUCGAAUGCAGAGGCGGCAACCUUCGGUGCCGCGAUAGCGCCAACGUUCCCAACUAUCACACGCAAAACGCGUGCUCCGGUGAAUGGAGUAUAUCAUG [G46U G59A G74A G84C U104C G112C U134G U145A],≤ -4.2
7,GGAUCUUCUCGAUCUAACAAAAAAGACAAAUCUGCCACAAAGCUUGCGAGCAUCUUCGGAUGCAGAGGCGGCAGCCUUCGGUGGCGCGAUAGCGCCAACGUUCUCAACUAUGACACGCAAAACGCGUGCUCCGUUGAAUGGAGUUUAUCUUG [A47C A150U],-0.247
8,GGAUCUUCUCGAUCUAACAAAAAAGACAAAUCUGCCACAAAGCUUUAGAGCAUCUUCUGAUGCAGAGGCGGCAGCCUUCGGUGGCGCGUUAGCGCCAACGUGCUCAACUAUGACACGGAAAACGCGUGAUCCGUUGAAUGGAGUUUAUCAUU [G46U G58U A89U U102G C118G C129A G152U],≤ -4.2
9,GGAUCUUCUCGAUCUAACAAAAAAGACAAAUCUGCCACAAAGCUUGCGAGAAUUUUCGGAAGCAGAGGCGGCAGCCUUAGGUGGCGCGAUAGGGACAACGUUCUCAACUAUGACACGCAAAACGCGUGCUCUGUUGAAUGGAGUUUAUUAUG [A47C C51A C54U U61A C79A C93G C95A C132U C149U],≤ -4.2
10,GGAUCUUCUCGAUCUAACAAAAAAGACAAAUCUGCCACAAAGCUUUAGAGCAUCUUCGGUUGCAGAGGCGGCAGCCUUCGGUGGCGCGAUACCGCCAACGUUCUCAACUAUGACACGCAAAACGCGUGCUCCGUUGAAGGGAGUUUAUCAUG [G46U A60U G92C U139G],≤ -4.2
11,GGAUCUUCUCGAUCUAACAAAAAAGACAAAUCUGCCACAAAGCUUGCGAGCAUCUUCGGAUGAAGAGGCGGCAGCCUUCGGUAGCGCGAUAGCGCCAACGUUCUCAACUAUGACACGCAAAACGCGUGCUCCGUUGAAUGGAGUUUAUCAUG [A47C C63A G83A],-1.37
12,GGAUCUUCUCGAUCUAACAAAAAAGACAAAUCUGCCACAAAGCUUUAGAGCAUCUUCGGAUGCAGAGGCGGCAGCCUUCGGUGGCGCGAUAGCGCCAGCGUUCUCAACUAUGACACGCAAAACGCGUGCUCCGUUGAAUGGAGUUUAUCAUG [G46U A98G],0.0194
13,GGAUCUUCUCGAUCUAACAAAAAAGACAAAUCUGCCACAAAGCUUGCGAGCAUCUUCGGAUGCAGAGGCGGCAGCCUUCGGUGGGGCGAUAGCGCUAACGUUCUCAACUAUGACACGCAAAACGUGUGCUCCGUUGAAUGGAGUUUAUCAUG [A47C C85G C96U C125U],≤ -4.2
14,GGAUCUUCUCGAUCUAACAAAAAAGACAAAUCUGCCACAAAGCUUUAGAGCAUCUUCGGAUGCUGAGGCGGCAGCAUUCGGUGGCGAGAUAGCGCCAACGUUCUCAACUAUGACACGCAAAACGCUUGCUCCGUUGAAUGGAGUUUAUCAUG [G46U A64U C76A C87A G126U],≤ -4.2
15,GGAUCUUCUCGAUCUAACAAAAAAGACAAAUCUGCCACAAAGCUUGCGAGCAUAUUCGGAUGCAGAGGCGGCAGCUUUCGGUGGGGCGAUAGCGCCAACGUUCUCUACUAUGACACGCAAAACGCGUGCUCCGUUGAAUGGACUUUAUCAUG [A47C C54A C76U C85G A106U G143C],≤ -4.2
16,GGAUCUUCUCGAUCUAACAAAAAAGACAAAUCUGCCACAAAGCUUUAGAGCAUCUUCGGAUGCAGAGGCGGCAGCCGUCGGUGGCGUGUUAGAGCCAACGUUCUCAACUAUGACACGCAAAACUCGUGCUCCGUUGAAUGGAGUUUAUCAUG [G46U U77G C87U A89U C93A G124U],≤ -4.2
17,GGAUCUUCUCGAUCUAACAAAAAAGACAAAUCUGCCACAAAGCUUGCGAGCAUCUUCGGAUGCAGAGGCGGCAGCCUUCGGUGGUGCGAUAGCGCCAACGUUCUCAACUAUGACACGUAAAACGCGUGCACCGUUGAAUGGAGUUUAUCAUG [A47C C85U C118U U130A],-3.62
18,GGAUCUUCUCGAUCUAACAAAAAAGACAAAUCUGCCACAAAGCUUGCGAGCAUCUUCGGAUGCAGAGGCGGCAGCCUUCGGUGGCGCGAUAGCGCCAACGUUCUCAUAUAUGACACGCAAAACGCGUGCUCCGUUGAAUGGAGUUUAUCAUG [A47C A107U C108A],≤ -4.2
19,GGAUCUUCUCGAUCUAACAAAAAAGACAAAUCUGCCACAAAGCUUUAGAGCAUCUUCGGAAGCAGAGGCGGCAGCCUUCGGUGGCGCGAUAUCGCAAACGUUCUCAACUAUGACACGCAAAACGCGUGCUCCGUUGGAUGGAGUUUAUCAUG [G46U U61A G92U C96A A137G],≤ -4.2
